Experimental data from patent US11287428B2, “PD1 and PDL-1 expression during progression from myelodysplastic syndrome to acute myelogenous leukemia” (H. Lee Moffitt Cancer Center and Research Institute, Inc., priority 2016, dated 2022).

Tests used:
Assay type in all cases: cell-based, human
[1] = tested on: CD33+CD14+ cells; assay: Culture of BM cells with S100A9, PD-L1 surface expression by flow cytometry; details: BM cells cultured with S100A9, 48 h
Procedure: FIG. 5. Culture of BM cells with rhS100A9 can induce the expression of PDL1 on CD33+CD14+.
(§1) FIGS. 20A-20C. […] One and half million of BM cells from Healthy donor were placed per well in 24-well plate, cultured with IgG or S100A9. After 48 h, cells were collected and stained with antibodies: anti-CD33-PE-Cy7, anti-CD34-Percp-Cy5.5, anti-CD14-BV510, anti-CD71-BV421, anti-CD38-BV711, anti-CD235a-BUV395, anti-PD-1-FITC and anti-PD-L1-APC. Near infrared live/dead dye was used for distinction of live or dead cells. Flow acquisitions were performed using LSR II cytometer and analysis was done using live cells with flowjo. (A) PD-L1 expression on CD14+/CD33+: cells positive for PD-L1 surface expression were calculated based on FMO gate setting. (B) and (C) PD-1 expression on progenitors by S100A9 or PT plasma, respectively. Positive PD-1 surface expression on CD14−/CD33−/CD71−/CD34+/CD38+ progenitors was determined using FMO gates. HD—healthy donor (n=6), MDS—myelodysplastic syndrome (n=10). Significance was determined using two-tailed unpaired t test with Welch's correction: *P<0.05, **P<0.01, ***P<0.001, error bars indicate mean±SEM.

[2] = tested on: CD33+, CD34+, and CD71+ cells; assay: Culture of BM cells with S100A9, PD-1 surface expression by flow cytometry; details: for PD-1 expression on CD34+ cells / PD-1 expression on CD71+ cells: BM cells cultured with S100A9, 48 h
Procedure: FIGS. 6A and 6B. Culture of BM cells with rhS100A9 can induce the expression of PD1 on CD33+.
FIG. 7. Culture of BM cells with rhS100A9 can induce the expression of PD1 on CD34+.
FIG. 8. Culture of BM cells with rhS100A9 can induce the expression of PD1 on CD71+.
as §1

[3] = tested on: CD71 cells; assay: Active caspase 3 staining of BM cells cultured with S100A9; details: BM cells cultured with S100A9, 48 h
Procedure: FIG. 21. Increased the expression of PD-1 and PD-L1 induced cell death. One and half million of BM cells from Healthy donor were placed per well in 24-well plate, cultured with IgG or S100A9. After 48 h, cells were collected and stained for cell surface with antibodies: anti-CD33-PE-Cy7, anti-CD34-Percp-Cy5.5, anti-CD14-BV510, anti-CD71-BV421, anti-CD38-BV711, and anti-CD235a-BUV395, then cells were fixed/permeabilized and stained with anti-active caspase 3-PE according to manufacturer's protocol (BD Biosciences). Near infrared live/dead dye was used for distinction of live or dead cells. Flow acquisitions were performed using LSR II cytometer and analysis was done using live cells with flowjo. (A) PD-L1 expression on CD14+/CD33+: cells positive for PD-L1 surface expression were calculated based on FMO gate setting. (B) and (C). PD-1 expression on progenitors by S100A9 or PT plasma, respectively: Positive PD-1 surface expression on CD14−/CD33−/CD71−/CD34+/CD38+ progenitors was determined using FMO gates. HD—healthy donor (n=6), MDS—myelodysplastic syndrome (n=10). Significance was determined using two-tailed unpaired t test with Welch's correction: *P<0.05, **P<0.01, ***P<0.001, error bars indicate mean±SEM.

[4] = tested on: C-Myc; assay: C-Myc and p-stat3 induction in HD BM cells cultured with S100A9; details: HD BM cultured with S100A9 for 48 h
Procedure: FIG. 23. […] Right panel, HD BM cells 48 h treatment.

[5] = listed as recombinant human S100A9

B1: S100A9: recombinant human S100A9 protein used to treat BM cells (protein, UniProt P06702 1-114, looked up)
Protein S100-A9: MTCKMSQLERNIETIINTFHQYSVKLGHPDTLNQGEFKELVRKDLQNFLKKENKNEKVIEHIMEDLDTNADKQLSFEEFIMLMARLTWASHEKMHEGDEGPGHHHKPGLGEGTP
[1]
  PD-L1 expression on CD33+CD14+ cells: directly induced the expression of PD-L1
[1]; [5]
  PD-L1 expression on CD33+CD14+ cells: induces PDL1 expression
[2]
  PD-1 expression on CD34+ cells: directly induced
  PD-1 expression on CD71+ cells: directly induced
[2]; [5]
  PD-1 expression on CD34+ cells: induces PD1
  PD-1 expression on CD71+ cells: induces PD1
[2]; BM cells cultured with rhS100A9
  PD-1 expression on CD33+ cells: induces PD1
[3]
  active caspase 3 in CD71 cells: increase active caspase 3
[4]
  C-Myc expression: induced C-Myc expression
  p-stat3: induced p-stat3
